This series can be described thus: soluble on expression in E. coli; label from the status in PepcDB or PDB records.
For “MAHHHHHHMRKGKSPSSFFSLHKKYLLTGVTILSFIFMFQYKYHEVLTVYEDKTNVQQSSRLFWTRLLFGRTRSRITGRIFNIEIPHSYRLYVYNFFIKYLNINKEEIKYPIESYKSLGDFFSRYIREDTRPIGDLNEYSIVSPCDSEIVDFGELTSNYLDNVKGIKFNIKTFLGSDMIKKYNDDSTSFYYAIFYLSPKKYHHFHAPFNFKYKIRRHISGEVFPVFQGMFKIINNLFDINERVILSGEWKGGHVYYAAISAYNVGNIKIVNDEDLLTNNLRTQLSYMGGDINTKIYDHYKDLEIGDEVGEFKVGSSIIVIFENKKNFKWNVKPNQQISVGERIGGVDQPKQPKNKFIKIRS”, the “soluble on expression in E. coli” value was “soluble”.

For “MGSDKIHHHHHHADGNDPVENSVSTYLLEKTYGARSVTYEENNSDKLKLSELPAISLSEADHILSVLRKHTDAQEELDIQTATKGEQTWLRIVMKQTIDHKYAFTIQLNMNCYNDGSLYYGGYQAECSSSLIKWYLKGFSLATDNATKNYKFESQSYIYMKVIDNGIKYMQIPVTINGNYNPQNHDAAFSYNL”, the “soluble on expression in E. coli” value is on record as “not soluble”.

In the case of “MGSDKIHHHHHHMLEQKINVDNTALFEQLWGWTNELREKIDARFELHSDPSTENFKKYSALIGEAHGSVNTFSGPEIDWLVHSWLREPKSGFCNMHLTVWLKSQIHVPHLAIVFATVPELFFFIDYVSRTDLFTDLDYLDRYYEPVNQTYLAFLKDSRFQQYISKTLYIRQVQSHTSLCYTSPVTEETLARIHTLAHEMIDRWLGWVDEAEPVAESERDALSERDLFVRRTVAERDPDNQIAVRLFGAEMTDKLVRSLWGGDRIL”, the “soluble on expression in E. coli” value was “not soluble”.

Regarding “MNCGPPPTLSFAAPMDITLTETRFKTGTTLKYTCLPGYVRSHSTQTLTCNSDGEWVYNTFCIYKRCRHPGELRNGQVEIKTDLSFGSQIEFSCSEGFFLIGSTTSRCEVQDRGVGWSHPLPQCEILEHHHHHH”, the “soluble on expression in E. coli” value is on record as “soluble”.

On to “PMLEVFYSGDRPPDRTRKQAFAAEASAIFQRVIGTPPGRLQLIIQIVSPENTLAVIDLDRPDSDTTAEPDQQ”, for which the “soluble on expression in E. coli” value was “soluble”.

In the case of “MAIMRVNPTRMELTRLKKRLQVARRGHKLLKDKLDELMKQFLDLVRKNKELREKVEEMLMKAHQDFLIARAVMSSEGLEAALMLPKQSISLDVSTQNIMSVEVPVLKFTTSSSDESDIYPYGFASTSGELDGAILTLSKVLPYMLELAQMEKSSQLLAQEIEKTRRRVNALEYVMIPQLTETIKYISMKLDENERGNITRLMKVKDMMLEQAHNFKEKLNEA”, the “soluble on expression in E. coli” value is on record as “soluble”.

Take “GSHMSEWKARRFWASVGIHKEEGGWAVLLDERPLRTPGKQPLRLPTEALALAIAEEWQAVQEVIDPNAMPLTRSANSAIEKVAPQFDAVAAMLGDYGGTDLLSYRADAPEALVRAQAEGWDPLIDWAATELRAPLRITHGVIPVPQDPVVLLKLRAEVASLDPFGLTALHDLVTLPGSLILGLAVIRGRIDAPTAHALSRIDEEFQAERWGRDEEAEAQAASRLAAMRDSERFWHLTRG”: the “soluble on expression in E. coli” value is recorded as “soluble”.

As to “HHHHHHMAGMAMDLGGYLTRIGLDGRPRPDLGTLHAIVAAHNRSIPFENLDPLLGIPVADLSAEALFAKLVDRRRGGYCYEHNGLLGYVLEELGFEVERLSGRVVWMRADDAPLPAQTHNVLSVAVPGADGRYLVDVGFGGQTLTSPIRLEAGPVQQTRHEPYRLTRHGDDHTLAAQVRGEWQPLYTFTTEPRPRIDLEVGSWYVSTHPGSHFVTGLTVAVVTDDARYNLRGRNLAVHRSGATEHIRFDSAAQVLDAIVNRFGIDLGDLAGRDVQARVAEVLDT”, the “soluble on expression in E. coli” value is “soluble”.

As to “KMFSYEGQVIIVTGDEKSTEFCNTATANYDSFRAGPVFDGTGLNPFCFVAHDFTADYLPNGQAKMFSSNVSYAQGDRIFDDVSTWDDYSLRVNHPLRIAGDRVYLQGHGYAPTFSIQWPNGEKRTQTVQWQPTDPTFFLSDGVVRFDPPAGMNDSVYDRRQHQLAIQGLFAPTASWEGENHELLTSRFPAMTDPAVAIDVYRGDNGLDSGKGQNLFKLDTSLVHSGQLQRLERVNLTKGESVTLDDGTVVTFEGAEEFANYQISHDPTQ”, the “soluble on expression in E. coli” value is given as “not soluble”.

Regarding “MLLFPRRTNIAFFKTTGIFANFPLLGRTITTSPSFLTHKLSKEVTRASTSPPRPKRIVVAITGATGVALGIRLLQVLKELSVETHLVISKWGAATMKYETDWEPHDVAALATKTYSVRDVSACISSGSFQHDGMIVVPCSMKSLAAIRIGFTEDLITRAADVSIKENRKLLLVTRETPLSSIHLENMLSLCRAGVIIFPPVPAFYTRPKSLHDLLEQSVGRILDCFGIHADTFPRWEGIKSK”, the “soluble on expression in E. coli” value is “soluble”.

As to “MGSDKIHHHHHHMKSDLELKHDVDQELLWDPALDARNVTATVLNRIVTLEGSVNSCAQKLALQKAVQRVAGSRAVVLDLVVRAPSPLRHTDEDLAAAIVSALQWQEGLPEDAIRVVVEHGCVTLTGEVDYGFQRQMAEVLVSRMRGVVGVANQIEVRIDPVAADVSKHIAEALQRRSRRESGGISVDVHDGVVRLTGVADSLLESVWPAASPGAPRACGGWSTSWSSHESRRLALHAFPSCLNQL”, the “soluble on expression in E. coli” value is given as “not soluble”.

As for “MTRVRDLMSTHIVHCTPLDNVYEAAVKMKEESIGLIPVVENEQVVGLVTDRDLVVRGIAEKHPGSNKITNVMTTNIISVSPNDSIEKATELMAQHQIRRLPVVDSGQLIGMLALGDLAIRESADDQAGFALSEISERTE”, the “soluble on expression in E. coli” value is on record as “not soluble”.

On to “MASQPTNAVSAEQLMLSKMQAMQAQVQPPEFIVSANPLDQQALNAPLSFSQAMTNVLDTVNQHQSAASQKMTAVETGQSDDLVGAMVASQKASLSFNALMQVRNKVVASFEDIMKMPV”, for which the “soluble on expression in E. coli” value is listed as “not soluble”.

Consider “MEEGVNMDIRPTRIELIRTRRRIRLAKKGLDLLKMKRSALIYEFLQISRTIRGMKENLRKEVVEALNIIKVASVLEGSLALERIANMSSDSRINVNSRNVMGVNIPTLEVSYNLSILSDVYRTVSVPVAIDDSIRRFQKLFYDLILIVEKENSLRNLLMEIDRTKRRSNAIENILIPRLEYQAKMIKMTLDERERDTFTTLKTIKKKIEAENDLEHHHHHH”, for which the “soluble on expression in E. coli” value is “not soluble”.

In the case of “MCVGVPMTVVTSDNGTALCERRGEQRRVSTLLIGEVAVGDRVLVFIDNAMRLLEPDEARLIDDALDGLAAAMQGRDFEHLFADLIDREPQLPAFLRNDVVPPHG”, the “soluble on expression in E. coli” value was “not soluble”.

Regarding “MLEIVSEELRHYQEQKLIEYRNKNQLAPKGGIVFAGDSLIEFFPLKKAFGSCLPIINRGIAGIDSQWLLRHFSVQITDLEPKHIFLLIGCNDIGLGYDKCHIVKTIVELISQIRSHCVYSQIYLLSLLPVSNNPRYQKTVKIRTNAMIDAINKDLAMIPTVEFINLNTCLKDEKGGLSDENTLDGLHLNFPAYAKLAEIIKSYI”, the “soluble on expression in E. coli” value was “not soluble”.

“MILMIDNYDSFTFNLVQFLGELGQELVVKRNDEVTISDIENMKPDFLMISPGPCSPNEAGISMDVIRYFAGKIPIFGVCLGHQSIAQVFGGEVVRAERLMHGKTSPMHHDGKTIFSDIPNPFTATRYHSLIVKKETLPDCLEVTSWTEEGEIMALRHTTLPIEGVQFHPESIMTSHGKELLQNFIRKYSPSVTSC”: the “soluble on expression in E. coli” value is “not soluble”.

Consider “MSAAQYARLVPKKYRSKTLPKIDRPWRPRVIAWAGPAAFYPNRFYEVDKWYKARIDKPEKLPEMHIIEPAEHMKSLKVLMQKSEIEQINIGFKRREVAGKAEKSAEDRIELERKSRHMQLKIDIDHLDVENLSIYRHFQVFDHLFGDNIFFENVQNLQVNFENDIVVHSGNVITANSTLKRPEITIESVGNGGGFNTLLMINLDGNALDLGKNGEIVQWMISNIPDGEAISAGSEIIDYLQPLPFYGTGYHRVAFVLFRHEKPVDFQIQGNSLDTRIHEISKFYKKHEATITPSAIRFFQTSYDNSVKMALHGLGMTSPLYEYEHRPALKPAQREFPEKPQPFDLYLDMYRDPKEVEQEMLEKRLAEVKLDYVKEPKWVDTDYVENKKKLPAWLHAKKLERDGVGHAKYHNDL”, for which the “soluble on expression in E. coli” value was “not soluble”.

For “MGTFTLHQGQTNLIKSFFRNYYLNAELELPKDMELREFALQPFGSDTYVRHLSFSSSEELRDYLVNRNLPLHLFYSSARYQLPSARNMEEKAWMGSDLLFDIDADHLCKLRSIRFCPVCGNAVVSEKCERDNVETLEYVEMTSECIKRGLEQTRNLVEILEDDFGLKPKVYFSGNRGFHVQVDCYGNCALLDSDERKEIAEYVMGIGVPGYPGGSENAPGWVGRKNRGINGVTIDEQVTIDVKRLIRIPNSLHGKSGLIVKRVPNLDDFEFNETLSPFTGYTIFLPYITIETEVLGSIIKLNRGIPIKIKSSIGIYLHLRNLGEVKAYVR”, the “soluble on expression in E. coli” value is reported as “soluble”.

Regarding “SANQNFNNSETLGHQGSHVVTLQLRIDGMHCKSCVLNIEENIGQLLGVQSIQVSLENKTAQVKYDPSCTSPVALQRAIEALPPGNFKVSLPDGAEGSGTDHRSSSSHSPGSPPRNQVQGTCSTTLIAIAGMTCASCVHSIEGMISQLEGVQQISVSLAEGTATVLYNPAVISPEELRAAIEDMGFEASVVSESCSTNPLGNH”, the “soluble on expression in E. coli” value is “soluble”.

For “MDIGINSDPPPRDWQLEKVVELSRAGIRPPTAGNREAIEAATGRPWTEWTTHDGELTGHGYAAVVNKGREEGQHYRQLGLLQAGCPTAESIYVRASPLQRTRATAQALVDGAFPGCGVAIHYANGDADPLFQTDKFAATQTDPARQLAAVKEKAGDLAQRRQALAPTIQLLKQAVCQADKPCPIFDTPWRVEQSKSGKTTISGLSVMANMVETLRLGWSENLPLSQLAWGKIAQASQITALLPLLTENYDLSNDVLYTAQKRGSVLLNAMLDGVKPEASPNVRWLLLVAHDTNIAMVRTLMNFSWQLPGYSRGNIPPGSSLVLERWRDAKSGERYLRVYFQAQGLDDLRRLQTPDAQHPMLRQEWRQPGCRQTDVGTLCPFQAAITALGQRIDRPSAPAVAMVLPKLAAALEHHHHHH”, the “soluble on expression in E. coli” value is listed as “soluble”.

Consider “SFKKFDEKENVSNCIQLKTSVIKGIKNQLLEQFPGIEPWLNQIMPKKDPVKIVRCHEHIEILTVNGELLFFRQREGPFYPTLRLLHKYPFILPHQQVDKGAIKFVLSGANIMCPGLTSPGAKLYPAAVDTIVAIMAEGKQHALCVGVMKMSAEDIEKVNKGIGIENIHYLNDGLWHMKTYK”, for which the “soluble on expression in E. coli” value is given as “soluble”.

On to “MQEDTLTSRGNMPYSLNVLIPLSCDLRPPVPQAIHAGRVDHRELGFVHPVSPGDVVAEVLVPAGEHFSPEVAQHLIGEGCALGDASTEHTEGQGVPVVATRSGHLDWDERALAVRDTLVVDEDVTYHVGNIRYFGDLIVRGMVRVAFRVRARSLLVEGLIEGAFIECERLEARGGVKAGGSGRLRVRETVAAPFMENAIVHAGSHVVVSGSSLHNEIKSNASVQVAERLIGGMTAARDSITVGERLGGGMSTLTRVQVGYDPFLNTAVHRLEVQAQHVEEVMLSCAKLAGRGGRLGDKAKARGERYAAALKRLRRKLADLLARLDATSTLETCTIDVRGEVRPGVEICIGPARLMNQDFLKNVRFSYCDGAVVATHPAGRTALEHHHHHH”, for which the “soluble on expression in E. coli” value is listed as “not soluble”.

Take “MHHHHHHMKHNQLPLVIEFTEQTAPKIFGGEIKTHILLFLPKSVSDYDGKLSNFKTAAESFKGKILFAFIDSDHTDNQRILEFFGLKKEECPAVRLITLEEEMTKYKPESEELTAERITEFCHRFLEGKIKPHLMSQELPEDWDKQP”: the “soluble on expression in E. coli” value is listed as “soluble”.

The values above are taken from the DeepSol protein solubility set.
